Results published in PMC13274938.

Target: Q23-APEX-GT2 trimer (Q23-APEX-GT1-T132R-S158T) (HIV-1 (Q23.17))
Test: cryo-EM structure

B1: CH70-Apex2.01 Fab (Fab, V domains shown)
VH: QVQLQESGPGLVKPSETLSLTCAVSGGSISDDYYWTWIRQPPGKGLEWIGYIYGDGGDTKYNPSLKNRVTISIDTSKNHFSLKVNSMTGADTAVYYCAREGRGQFWYDEDYGQFYVPGGLDSWGQGVVVTVSS
VL: DIQMTQTPLSLSVSPGEPASISCRSSQSLLHTDGYDYLDWYLQKPGQSPQLLIYGGSDRPSGVPDRFSGSGSGTDFTLKISRVEAEDVGVYYCMQHKALPRTFGQGTKVEIK
Q: B1 was tested. Which stoichiometry N (Fab per trimer) did it give?
A: 1
